This is an account of results in the DeepSol protein solubility set.

This data set in a line: soluble on expression in E. coli; label from the status in PepcDB or PDB records.
Turning to “ESEILGLFQRWQAAHGQRSGKALEGVYAPRLDYYGRAQTRERTLSAKQAFFARHPDFEQRIVAAPQIVPGDQEGRYEVRFVKQVRLDGRLRNYPGLLLAERAGPGDTWRFVGESDEITRYAVDPRYTPLARGRFAGTEADFAWVVAHAPNSAALCDEYEDCRCDLWSADARVPPK”, the “soluble on expression in E. coli” value is given as “not soluble”. Turning to “MGSSHHHHHHSSGLVPRGSHMEEEMMILGVDGGSTKTLAIVFDERSERIMGVGISGPSNFTNAPRETAESNISDAVRKACSEAGTDLDGIGIRVFGLAGIGDSREATELGKDIVRSIVGHADVYSDGLGAYKFANLNDDGVVFAPGTGSVGFIKNGSDPERFGGWGWFIGDEASASWMAKQAILFAEREHDGIAETGFLDVVRRYFGMDLYETVYAISKEKIAKRVVAALAPQVSAMARSGNRYAISIFEESSSYIADLLNAKSRIFGRSGKYSVLGGTMLAGDFYRDMIRKKSSVDVSIYYGYQVAIGDVLIGIEKKGSISVDLRNKMIDQLNSILENKKEDIKKFLFLDSVPTS”, the “soluble on expression in E. coli” value was “soluble”. To “WCAETAPEPQVEPEPEVLPEPDRGSATPAELGINSLDIVRLANRIEDATGTRPSLATLLNQPWQESLAMVEVLEPRPALASEQKPELVPDRDREVIDVVGAGMALGARIRAEVPISEEPVEDQFVQVGQWLKQLRAVVEPAGCMQVTPPSGNILCAIDITPGEKADVSDHAPLTPLQLGYLVGRADTWLGEPVAPHYYTEVEVADLDVVALQRALDEVVRAHPALMLGVHDDGNQGLSEALRPRLVVTDLRDHPDPDGELERIRAVGCAGVSDPLGTAWFQLRATLLPTAVR” belongs “not soluble”. For “MNKTSKAYQPLLSSKAKIAIIGGGVAGSTIALRFAELGLDTTLIEKGPSLVNGPPICHLHAGGNLYREICDEQCLTLLKQSIDTVKVYPQSVNIRPTVIALPKTDNGQPEDLLPRLEKLRAKYSELVAQDSRNKVLGEPENYFKFYSRTELDALLDLPLPKTAKNDSDWLVAFAQHVDLDSLKFPVLLVQEYGLSAFRFAAIASLAIEGLPSCHLQTNKQVIAIVQQKNSLGWQVSTQALPQHQQSPTIIHQHFDYVINACGFKSGEIDDMVSAKRKRMVEFKAAYVAHWPQCQGLWPEIVFYGERGTPQGMAQLTPYPDGYFQLHGMTQDITLFDQGLVASSLESAQPQLAKRFIEKIDKKWPEQLVHNRTLGSIEHIAQFISAFSSAEVAAKPLFGAQQIPGEDADLRAADVSFYGQHYARAEIVKASSALAAGDAILKNLVDCGLIAALELGRYLTEHYFPVSQQCSEIEVTERAIMLAKQREYPIALAKNLLEHHHHHH”, the “soluble on expression in E. coli” value was “soluble”.

As for “TASIGAAAILGAPIMHDFCHISLSDLMTPWEVIEKRLRLAAEADFVICLYNPRSKGRSEHLSKAFKIMGEFKGGDTPVGVVKDVGREKEEKFVCTFENMDFEKVDMTTMVIIGNKSTY”, the “soluble on expression in E. coli” value is given as “not soluble”. For “MGKKKNKKTEVQQPDPMRKNWIMENMDSGVIYLLESWLKAKSQETGKEISDIFANAVEFNIVLKDWGKEKLEETNTEYQNQQRKLRKTYIEYYDREMK” the value was “soluble”; for “MGSDKIHHHHHHMFAKFVQRHGAARKAADKTIRAQAGALYAALKDPPGPPHAPASAEHREHQEQDAKEQTMYNDSKHGFDVAQTEYEAFMLEPHDWVPNNRKLPVVIYRRALMPASGDLAAAFEILFERNAWPPQWRDGIFDYHHFHATAHEILGVTDGSAQVIVGGPGGRVVTLCAGDALLLPAGTGHCLQSFARHFQVVAGYPEGQQWDIRREALTPDELASMEALPFPSLDPIDGKHGPLVEHWLHAA”, “not soluble”. To “MSLKIKALLLDIDGTMVFKGHAIPGAAEAIEAARMAGLQLRFLTNITGQLPSTIAEDLQRHGINVRAEEIHTASTSCARYLKSLGDVSCFFLMPESVNSMFEGIARDHVSPDVVVIGDIGESFDYACLNQAFGYLHKGARLVVPHKNLFWFDPRGVRLDCGAFILGLEAASGKQALVTGKPSPVFFTSVMDSLGVKPSQTMIIGDDLLTDIAAAQHLEVAHALVLTGKGASYTESDVPRPERLWPSIAELSRFLAQSGHNTEGHHHHHH” belongs “soluble”; to “SLRVYIYEYAVATGDEEFLAEGRAMLESLLRAFAKSGYETLTVAHPSVGVRWADEVLRDETQALECADLTLVIAPESDGLLESKVREYSRETEVIGPTPRAIRVAADKRKTEDALRDARSFQLPTREADVMVSKPADGAGSEGVRIGRGELSRELIPGSHHSLLCVSDGETVDVLGINDQFVAFAGRELVYLGGRTPSDHRELTRIARDIAEEVVERIPGLVGLFGVDLVMKGGEPYLIEVNPRPTTPTVAAALEHPEAVVRSLLEGPTGKVLRYRREYVYVKRGAEALVPEKFEVVEDFHGLRVYRG”, “soluble”.

On to “MSTATRPSSSATTSVILENPVSQSQPTERLVLRLNRKKKKVSWKDGTVDNEFMQKKSSKKCCIFHKQKPFDEDDSEEEDDNNHHCDHNHEHSESGEASSSNDSKAVDMGHHHHHHSH”, for which the “soluble on expression in E. coli” value is “soluble”. To “MSELHFMSLEELDNELEKDDSGIYFIKDYNDNIIYIGKAFSIKSRVLAHFNSYSNIKEYVHLFNKVAYLIEDSLLKRSLLQVTYMIKYKPVLNKEVQKEFPELYTQYIKQTNKKSMLLEIEEAKEKRDELKNRLVKLVGGKTMFYDIISLLNNGYNYHVLAKVLSIELQTLIIMKEHRNKFPMPHNYKRTIKHQDIMYALSGKKNLSTSRLNT” belongs “soluble”; to “MSLSLKIALISQNENLLNLFPKLALEKNFIPITKTASLTRASKIAFGLQDEVDAIISRGATSDYIKKSVSIPSISIKVTRFDTMRAVYNAKRFGNELALIAYKHSIVDKHEIEAMLGVKIKEFLFSSEDEITTLISKVKTENIKIVVSGKTVTDEAIKQGLYGETINSEGHHHHHH”, “not soluble”. To “MNAVTEGRKVLLEIADLKVHFEIKDGKQWFWQPPKTLKAVDGVTLRLYEGETLGVVGESGCGKSTFARAIIGLVKATDGHVAWLGKELLGMKPDEWRAVRSDIQMIFQDPLASLNPRMTIGEIIAEPLRTYHPKMSRQEVRERVKAMMLKVGLLPNLINRYPHEFSGGQCQRIGIARALILEPKLIICDEPVSALDVSIQAQVVNLLQQLQREMGLSLIFIAHDLAVVKHISDRVLVMYLGHAVELGTYDEVYHNPLHPYTRALMSAVPIPDPDLEKNKTIQLLEGELPSPINPPSGCVFRTRCPIAGPECAKTRPVLEGSFRHAVSCLKVDPL” belongs “not soluble”; to “MHHHHHHSSGVDLGTENLYFQSMKYILVTGGVISGIGKGIIASSVGTILKSCGLHVTSIKIDPYINIDAGTFSPYEHGEVFVLDDGGEVDLDLGNYERFLDIRLTKDNNLTTGKIYQYVINKERKGDYLGKTVQVVPHITDAIQEWVMRQALIPVDEDGLEPQVCVIELGGTVGDIESMPFIEAFRQFQFKVKRENFCNIHVSLVPQPSSTGEQKTKPTQNSVRELRGLGLSPDLVVCRCSNPLDTSVKEKISMFCHVEPEQVICVHDVSSIYRVPLLLEEQGVVDYFLRRLDLP”, “soluble”; to “MSIVMSAGKGVTQVVERCEAAKESGFLDLSSCQLMYMADAVYMLIKGYEITKVSIQDNGFKKFPKKFVIKFPTATILNMANNEISEIPEEVATWTSLKGLNAAKNKISKFPEPFLQLKNLIYLDLNGNQLEEIDVDLFYSSLPALIKLNLSGNEGLGDETKKKLKALKPEKLDLIL”, “not soluble”. For “MKQVPPAAPVAPWLGGKKRLHPLILERIEAIPHRAYVEPFVGMGGIFLRRRFRPRLEVMNDRNGEIINLFRILQRHYPQLLEIMRFQICSRREFDRLRLTDPATLTDLERAARFLYLQRLSFGGKPNGSFGISPGNGPLFSLARLEPLLDAARTRLDGVVFECLDWADLIPRYDTAETLFYLDPPYFGGENDYGKGLFDRAQFARIAEILGSLKGAFLLSINDTPEIRALFGRFHLEPVRLNYSVSAAGSTEAQELLVSNRERIATLL” the value was “not soluble”; for “MLSKGAVIDKLKSYKPCENCNGPISKTVSISDLNLDKRKRNCVCGNSQLDDVMLDVLNLMSEYNELQNTDLKDVTLRDAGTPLVEIGYPLKYLPVVSNDELIVMKDVSKACATEILKIPEVKGVISNNSKNNSFNRVEDSGEVNALIAGDDFRCDIFVLKSIMDCVVICKNQSKVHIEFPRPFNPKIAKIDRLNLKGKVVVDGFCGSGTLGLAALKKGAKKVIFSDINPHALKDVIYNLKLNFSKEVFDRIEIINSDFLNLDIVGDVCFVDLFPHMDKEPFLNKAKTISKQVVLILEHHHHHH”, “not soluble”; for “MSNNKQAWTGQLDLSVFNNGKKSVARDVFFEKALKVMRPVYLNQSDIPTFYIVNVGGGYLDGDRYTMNFNIDSDAKVILTSQGATKIYKTLNDHVEQYQTFNIKNNGYAEYVGDPIIAFENAKFYQHNVFNLESTASLFYTDILTPGYSKSDKRFSYTYMHLLNEIYVDDALVTFDNMLLDPQKQNVDGLGYMEDYTHLGSCYFIHPSVNQKFIEQVYEEIKHFQHKYDCRFGITHLPTHGFSLRILSNKTQVIESIITAVQCYVVKQIFDRDVDFLRKYLEHHHHHH”, “not soluble”. On to “MGSDKIHHHHHHMIFTMKATKILICILCCTWICSCSLLEVDPVSTITSQSFWKTPGDAKAYLTGIYNKVRSLNNTSYYGEDRGDAFKAGEIGPTSVAWAHTLLESNAPSYRSAYNIIHHANLLFNKIESLKFTNETEKNRIKAECHFLRAYTYFLIVRIWGDAPIITDPVLSDNVELKPRSPKEDVMKLILEDIEQSVLLFPEDGYINKNLASKPAAYALKADVLMWKAKVLNGGNADLEEAIKAIDQVGGSGVSLLPDYAKVFANDNKKNNEIIFSFYFERYETGNLSIATNTTSRTDNLSMAVNLADAATSPNQSRHVYAPSDKARELYLKYPGDRRYKVAMIDLVDKDGNLILTQTNKFRGKAYSDDRYFDDDLIAYRWGDLLLLRAEANAALNKISESLVDLNEVRDRAGLEPYDGPKDKIAVEKEICDERLRELFIEQKRWFDLVRFHCGGTIDIYKEVPNLNDKPGYPLYFPINYNDMVLNDKLVQTDGYESNVER”, for which the “soluble on expression in E. coli” value is “not soluble”. For “MKRFLLLLCALLSFSALAAPKADLWPYWQQSNGVNQTSISHLEWQQLLDSYLVTRGDNTLFRYNQVSFADKTKLKQYIQRLASLNPLQYRQAEQYAYWVNLYNALTVHLILDNYPITSITKLGGLFSFGPWDQGVIIINGKSLTLNDIEHRILRPIWQDPRTHYAVNCASLGCPNLQTQAFTAENTQTLLESAAKTFINSKKGVSIEGDTAKISSIYEWFAVDFGGEKEVFNHIRKYAPQYNHFSGRVKYDYDWSLNQADLEHHHHHH” the value was “not soluble”. For “MVPSRNGEGTELRGHMEIEKELALEKKTYGSHIKILILGGPLSGKSTIFKQMQIIHVDGFKTDQELIQYRGLIDNNIRDIYLQLIAGSRVVGIPLDPIEHITYEIDEIYAPMSDAFSVRTISELLEPLTEFWNSKQIQEIYKRRCEFELLDSTKYYLENLTRIADPTYLPNQEDIVHSRKATMSINSIVFEYTGVSLLMIDVGGQRSERKKWLHLFDDAKVVLFVIDLTGYAKRSEESRMELSRFPKFFRDVGSNAYDMKVALKIFNEVAAASALANAVFLLFFNKVDLFKEILSQVNLQPCFSKFDGENTYEETSKYICEKFIRAASSKKSVFPHFTTATNTENVKLVFRACMESVFKANAKATGLS” the value was “not soluble”.
